Like-named read-outs stand apart in the source and are kept apart here.
What was measured:
19cPB = assay: Infection assay, 19cPB virus chimera; type: cell-based, human adenovirus; conditions: 5 µM and 10 µM HD5, A549 cells; at least three independent experiments; neutralized only at 10 µM
Text: (§1) The availability of sensitive (e.g., HAdV-5) and resistant (e.g., HAdV-19c) serotypes provided a means to test this HD5 neutralization model by generating virus chimeras. Initially, virus chimeras were constructed by replacing the sequences for fiber, penton base, and hexon in the HAdV-5 genome with the corresponding sequences from HAdV-19c. Consistent with previous studies, [38], the virus chimera containing the HAdV-19c hexon is not viable; however, constructs containing the HAdV-19c fiber (19cF) or penton base (19cPB) are capable of replicating. […] In contrast, the 19cPB virus has an intermediate phenotype.
(§2) Figure 6 Neutralization determinants are located in fiber and penton base. A) Schematic of chimeric viruses. […] B) Each of the chimeric viruses was incubated with 5 µM (grey) or 10 µM (black) HD5 and assessed for infectivity on A549 cells. […] The upper limit for quantification of this assay is 200%.
(§3) Prior to use in this assay, each virus stock was titrated on A549 cells. […] In parallel, wells were infected with two-fold serial dilutions of each virus to establish a standard curve for quantification with an upper limit of 200%. […] Total well fluorescence above background was quantified with ImageJ software. For each virus, samples were quantified by nonlinear regression against the standard curve using Prism software (GraphPad Software, Inc., La Jolla, CA).

HAdV species B1 = assay: Infection assay (hexon staining), HAdV species B1; type: cell-based, human adenovirus; conditions: 15 µM HD5, A549 cells, hexon staining at ~48 h, vs. no defensin
Experimental: To determine whether sensitivity to α-defensins is a general property of HAdVs, serotypes representative of HAdV species A–F were tested for infectivity in the presence of 15 µM HD5 or HNP1 (Figure 1). Wild type HAdVs rather than vectors were used for these studies, and infectivity was assessed by staining for hexon production. […] These studies indicate that sensitivity to α-defensins is species specific. In addition, particular HAdV serotypes are not equally sensitive to all defensins, indicating defensin sequence specificity as well.
Figure 1 Sensitivity to neutralization by alpha-defensins is AdV species specific. HAdVs were incubated with 15 µM HD5 (A) or HNP1 (B) and assessed for infectivity on A549 cells. Data are the mean of the percent infectivity compared to control cells infected with each virus in the absence of defensin for at least three independent experiments ± SD. The upper limit for quantification of this assay is 200%. […]
as §3

HAdV-5 capsid = assay: Virus-defensin equilibrium-binding assay, HAdV-5; design: species or system human adenovirus
Experimental: Neutralization of HAdV by α-defensins is dependent upon binding to the virus capsid, which can be disrupted in the presence of elevated concentrations of sodium chloride. To perform a more quantitative assessment of this interaction, increasing concentrations of HD5 were incubated with Ad5.eGFP to allow binding, and the virus/HD5 complex was then separated from unbound HD5 on a nycodenz gradient. Bound defensin was visualized after SDS-PAGE using a sensitive fluorescent total protein stain and quantified against a standard curve.
Figure 2 HD5 binding to HAdV. A) HD5 binding to a representative defensin-sensitive serotype (HAdV-5) was quantified by an equilibrium-binding assay. Data are the mean of the number of HD5 molecules bound per virion at the indicated HD5 concentrations from at least three independent experiments ± SD. Binding curves were fitted using Prism software. B) Binding of HD5 to additional defensin-sensitive (HAdV-7p) and resistant (HAdV-19c, -25p, -51p) serotypes expressed as a percent of HD5 bound to HAdV-5. Data are the mean of two or three independent experiments ± SD.
To measure HD5 binding to HAdV-5 and -51, HD5 was serially diluted in PBS and mixed with 5 µg purified virus. After 1 h incubation on ice, one half of each sample was separated by ultracentrifugation [209,000×g (avg.) for 2 hrs at 4°C] on a discontinuous gradient consisting of 300 µl of 30% nycodenz and 200 µl of 80% nycodenz in 50 mM NaCl, 20 mM HEPES pH 7.4 using an SW55ti rotor with adaptors (Beckman Coulter, Inc.). The visible virus band was collected. The other half of each sample was used to make a standard curve for quantification. All samples were boiled in reducing loading buffer and separated using a 16% PAGEgel (Expedeon, Inc., San Diego, CA) or 10–20% Tris-Tricine gel (Bio-Rad, Hercules, CA). The gels were stained with Deep Purple (GE Healthcare) and imaged on a Typhoon Trio. Virus bands were quantified using ImageQuant NT software (GE Healthcare). The amount of HD5 in each sample was normalized to protein V and hexon. The amount of HD5 in the centrifuged samples was then quantified against the standard curve using Prism software. Affinity and stoichiometry were estimated from the average data of at least three independent experiments using Prism software.

19cF = assay: Infection assay, 19cF virus chimera; type: cell-based, human adenovirus
Text: as §1, §2, §3

B1: HD5: human alpha-defensin; synthetic, obtained from Peptides International; three disulfide bonds (PDB 1ZMP) (peptide, UniProt Q01523 20-94, looked up)
Defensin alpha 5: ESLQERADEATTQKQSGEDNQDLAISFAGNGLSALRTSGSQARATCYCRTGRCATRESLSGVCEISGRLYRLCCR
modifications: Defensin-5
For B1, the “sensitivity to HD5 neutralization” value (19cPB) was “partially neutralized by HD5 but only at the higher concentration tested (10 µM)”, the “sensitivity to neutralization (infectivity)” value (HAdV species B1) was “sensitive” and the “95% confidence interval of HD5 molecules bound per virus particle at saturation” value (HAdV-5 capsid; 95% confidence interval) was 1603–3919 HD5 molecules. For the same molecule, the Kd (HAdV-5 capsid; 95% confidence interval, read-out: 95% confidence interval of KD) was 2.8 to 26.2 µM, the “level of HD5 binding (in words)” value (HAdV-5 capsid; HAdV-5) was “specific binding” and the Kd (HAdV-5 capsid; equilibrium binding, Ad5.eGFP, 1 h on ice in PBS, nycodenz gradient, at least three independent experiments, read-out: KD) was ~14.5 µM. For the same molecule, the “sensitivity to HD5 neutralization” value (19cF; 5 µM and 10 µM HD5, A549 cells, at least three independent experiments, upper limit 200%) was “completely resistant to neutralization” and the “defensin-resistance at higher HD5 concentration” value (19cF; 20 µM HD5, data not shown) was “confirmed the defensin-resistance”.

— publication PMC2891831, “Insight into the Mechanisms of Adenovirus Capsid Disassembly from Studies of Defensin Neutralization” (PLoS Pathogens, 2010)
